Data from a protein production outcome set (Wang et al. 2014).

Assay: label from the status in PepcDB records

Row | Sequence | protein production
1 | MRILLATDGSPQARGAEALAEWLAYKLSAPLTVLFVVDTRLARIPELLDFGALTVPVPVLRTELERALALRGEAVLERVRQSALAAGVAVEAVLEEGVPHEAILRRARAADLLVLGRSGEAHGDGFGGLGSTADRVLRASPVPVLLAPGEPVELEGALLGYDASESAVRALHALAPLARALGLGVRVVSVHEDPARAEAWALEAEAYLRDHGVEASALVLGGDAADHLLRLQGPGDLLALGAPVRRLVFGSTAERVIRNAQGPVLTAR | failed
2 | DRNSYSKTDYDATFMRMKEDHMKNGQLKPGYNLQIATNSQFVLSYNVYQNPTDTRTMIPFLNSIQETYGHLPEYIVADAGYGSESNYKAIIDDFNRTPLITYGMFIKDKTKKYKSDIFNTQNWNYDEIN | failed
3 | MLFTNLDGVRNVVPVGHRQRRARPVGAGDVRAEKSLRYHLQEHGRLPLNEAVAVLSDVAEALADLKDREIVHRDLKPENILLLGGRRCLADFGIARYAEATIAKHTLKLAGTLAYMAPERWNNQRAASASDIYAPGVVAYELLEETPPFTGPYEHDYHDQHLHGPVRPSPQLRPSWRR | failed
4 | MVRTRLFGTFPHLSRSAQAQRNMTTTYANADPGELEKFSELAHRWWDPNSEFKPLHEINPLRLDWIQSTAPLAGKRVVDVGCGGGILSESMARAGANVKGIDLSRKALRVADLHSLEAGVAVDYEEIAAEALAAREPGSFDVVTCMEMLEHVPDPASVVRACATLVKPGGHVFFSTIHRNAKAYLLAVIGAEYVLNMLPRGTHDYAKFIRPSELAGFARTAGLEPAQLRGLEYNPLTGRYALTHDTSVNYLIATRRPDAP | failed
5 | MSEKAKKGFKMPSSYTVLLIIIAIMAVLTWFIPAGAFIEGIYETQPQNPQGIWDVLMAPIRAMLGTHPEEGSLIKETSAAIDVAFFILMVGGFLGIVNKTGALDVGIASIVKKYKGREKMLILVLMPLFALGGTTYGMGEETMAFYPLLVPVMMAVGFDSLTGVAIILLGSQIGCLASTLNPFATGIASATAGVGTGDGIVLRLIFWVTLTALSTWFVYRYADKIQKDPTKSLVYSTRKEDLKHFNVEESSSVESTLSSKQKSVLFLFVLTFILMVLSFIPWTDLGVTIFDDFNTWLTGLPVIGNIVGSSTSALGTWYFPEGAMLFAFMGILIGVIYGLKEDKIISSFMNGAADLLSVALIVAIARGIQVIMNDGMITDTILNWGKEGLSGLSSQVFIVVTYIFYLPMSFLIPSSSGLASATMGIMAPLGEFVNVRPSLIITAYQSASGVLNLIAPTSGIVMGALALGRINIGTWWKFMGKLVVAIIVVTIALLLLGTFLPFL | failed
6 | NIVEWLGDRSLAVLAAIANKFRGSEQETLEPQLDEFVEDKVSTKHVEDDQQDDETLPHLTAYEVEEPKEKAAVHEYPIYMPQAKSETSAVKPTPEPQPQRVAAVNATPTYVEPEPQLKAVSTDNVDPMVERTKQLNVTIEELEAAAQQADDWASEEQTSQSYADTNAVYQEQVQAKHEEVVEHDTPQLESSYAEYAQFAAQQEQQLHVEPTPHEEPVIDTRALDDITDHAEPSEHIEPTISDFDVVDEEETYVAPQPQSRSPEPQPMVQPQSVSQIQPEQAPEPSVAFEPAPQEVEVEEVQDGDQDVAAFQSMVSSAQAKVAATQNPFLMKQEQNLPVPEEPLPTLELLYHPEKRENFIDREALEQVARLVESKLADYKIKADVVGIYPGPVITRFELDLAPGVKVSRISGLSMDLARALSAMAVRVVEVIPGKPYVGLELPNMSRQTVYLSDVISSPQFEQAKSPTTVVLGQDIAGEAVIADIAKMPHVLVAGTTGSGKSVGVNVMILSMLYKASPEDLRFIMIDPKMLELSIYEGIPHLLAEVVTDMKDASNALRWCVGEMERRYKLMSALGVRNVKGFNEKLKMAAEAGHPIHDPFWQEGDSMDTEPPLLEKLPYIVVVVDEFADLMMVVGKKVEELIARLAQKARAAGIHLILATQRPSVDVITGLIKANIPTRVAFTVSTKTDSRTILDQGGAESLLGMGDMLYLPPGSSHTIRVHGAFASDDDVHAVVNNWKARGKPNYIDEIISGDQGPESLLPGEQMESDEEMDPLFDQVVEHVVQSRRGSVSGVQRRFKIGYNRAARIVEQLEAQGIVSAPGHNGNREVLAPAPPKD | failed
7 | MSAFINQAAACAGDHAPRSAAQEARRGLRASLPVLLGFIPFALVLGAQATQKGLSVMEVPLMTGLNFGGGSEFTAIRLWTSPPHLLLIAAMSLLVNSRHLLMGAALAPYLRHVPRRRALAALFFMCDESWALALADAQSRATGRISLGYYLGVSAGLYLTWVVFTAIGAALGPVIGDVERYGFDMAFTAVFLVLLRGMWRGLRASRPWLASLAAAALTYRLMPDGAWYVAAGALAGLACAALTVPKEARA | failed
8 | MVSLLLISLLYLGIMLIAAKISEEIFRRIGLVTFVGPILMGILLGNGVFGVIQINEIISFITSLGIVFLLFLAGAEEFNVENRPNANVFLAVILESIIPFSVILVAIYIIGFKNYLILIVPLAMSSAGPLSRMLMDVKISDNRISNLIFQQVILIEIIFVILFAILLKTSEILITIIEIFLVFAFTIMFGRTLAKILEKIEYYFKAREIEFASLIAIILIIGYLAELYKFNSAISAFFLGILLKDYLKDRPELLERLHAFTYGFFEPLFFLGIGLYVTKINASIILFSLLFFSLIIASKFLAGFISSKILNIKGKINGFATSVKGGVDSSLLLTGLTLGYINEFMYSFSILAISLSALIVPLLFQINFKISNKISESKKVKLSQEVIKLQIKPLYASCEENLRSVISKISERGVRGIVVVNYENKPLGYVSIQTLLEIDPELYESTKACEVPLDEVPIEYDNVKVIDLLRKFRETEKPVIAIINKEGVLVTTVYERELARFLISF | failed
9 | MSMNNSKQLVSPAAALLSNTTCQTENRLSVFFSVIFMTVGILSNSLAIAILMKAYQRFRQKSKASFLLLASGLVITDFFGHLINGAIAVFVYASDKEWIRFDQSNVLCSIFGICMVFSGLCPLLLGSVMAIERCIGVTKPIFHSTKITSKHVKMMLSGVCLFAVFIALLPILGHRDYKIQASRTWCFYNTEDIKDWEDRFYLLLFSFLGLLALGVSLLCNAITGITLLRVKFKSQQHRQGRSHHLEMVIQLLAIMCVSCICWSPFLGYRIILNGKEKYKVYEEQSDFLHRLQWPTLE | failed
10 | MRILFVGPPLYGLLYPVLSLAQAFRVNGHEVLIASGGKFAQKAAEAGLVVFDAAPGFDSEAGYRRQEALRKENNIGTKMGNFSFFSEEMTDPLVAFAGQWRPDLIVYPPLGVVGPLIAAKYDIPVVMQTVGFGHTPWHIKGVTKSLSNAYRRHGVSAPPRDLAWIDVTPPSMSILQNDGEPVISMQYVPYNGGAVWEEWWERTPDRKRLLVSLGTVKPMVDGLDLISWVMDSAGEVDAEIILHLPANARSDLRSLPPNVRLVDWLPMGVFLNGADGFIHHGGAGNTLTALHAGIPQIVFGQGADRPVNARAVVERGCGIIPGKSGLTSSMINTFLGNRALREASQEVAAEMAAQPCPTEVAKKLIAMLQHG | failed
11 | MQTLIIVAHPELARSNTQPFFKAAIENFSNVTWHPLVADFNVEQEQSLLLQNDRIILEFPLYWYSAPALLKQWMDTVMTTKFATGHQYALEGKELGIVVSTGDNGNAFQAGAAEKFTISELMRPFEAFANKTKMMYLPILAVHQFLYLEPDAQQRLLVAYQQYATNVGAGHFKDLEHHHHHH | not failed
12 | AAGIDQYALKEFTADFTQFHIGDTVPAMYLTPEYNIKQWQQRNLPAPDAGSHWTYMGGNYVLITDTEGKILKVYDGEIFYHR | not failed
13 | MRLGTFHKKKRFYINKIKINFLSFLFRNKINNQITDPAQVKSCLIIHDNNKLGDLIVLSSIYRELYSKGVKITLLTNRKGGEFLSNNKNIFEFCIKESTGFLEMLTLCKHLRDLQFDIVLDPFETMPSFKHSLILSSLKDSYILGFDHWYKRYYSFYHPHDECLKEHMSTRAIEILKHIYGEGKFSTNYDLHLPVDVEDKIKEFIGDTRIVIINPLGAKKICRLTFEQIKVIYQEVKTHFENYRIIFTGLPQDLLTIPILEIETLPFDEFIYTVALTKYSDFVISVDTALVHIAAAYHKPTLAFYPNSRTPEYPSHLIWSPNHHKSIQIVSPTYTVKDIDTETLTNSVKRLSCIDKK | failed
14 | MQEIISFIVETASAWGYLGIIILMTLESCFIPFPSEVVMIPAGYLAHKGELDITLCILSGTLGSVLGALINYYICFFWGKNFVLKWGKYFGINEVKFAKFEEFFNKHGEFSTFTCRLLPGIRQYISMPAGLVKMKLVNFILFTALGSAIWVAILVFLGYYIGQNEELIKTYLTQILIIIIVFVILASLIYISKSKSLLKRLKFYLLRFVWRF | failed
15 | VRPDGRGKVTGELKYMTDLSFPGMLYGKVLRSAYPHAEIVSVCTIKAEKMEGVQAVVTHKDVPGLNRFGIVIPDQPVLCEDRVRYVGDAIAAVAAETEEIAEAALELIQVEYKELEVMDSPEKALRPNAQRLHEDGNILHRAFFSNGDVEEGFQASDTVFEETYELPRQMHTYMETEGGVAVPEDDGGFTMYAGTQHGYKDRFQLARIFDIPEEKIRIVSSPMGGSFGGKDELNIQPYAALLALKSGRPVKIHQTRKESVRSGIKRHPMKITIKTGADHSGNLLAHDVKIVADTGAYATLGPAVLDFSVEHAAGPYRIPNIRTEGISVFTNNGVAGEFRGFGGNQITFALETHLDRLSGMLGIDPLELRRKNIRKPHDLGPLEHRIAPTDGAAQVLNAISKSPILKKTSRNCGYLQRGTGAAITMHGGGLGFGRMDAAGGRLSLSSEGKITASFGFEECGQGILAAIEQIVMEELGCAAEDISIVIGDTAKVPKSGSSTASRGTSMVWHAIQRLKKPFLAQLKKRAAEWSGCSAENLIPGAAGLRDKNTKALVVTYKELAEKGPLAEETAFDFPTTPDPVVGGHFLYSFGAAAVEVEVDLLTGDVKLIDCEHAIAAGPVVSPQGYRGQIEGGAAMALGYTLMEEAKMTDGRYAAENLDHYLIPGIKDVPDMKLIAIEDLMKGDVYGPRGVGEIGTIAITPAIVKAVHDAVGCWINKLPISREELLEAIDRKGL | failed
16 | SNQDITQPTAIIAVVGVGAEQGIGAAVCRRFAQEKFKVYVAGRTLNKVEKVAAAIHRQGGQAVAYVLDAENEQQLQTLFDHLNDQPEALAAVIHNVGGNIPSIFLQSSLKFFSQMWRSTFLSSVLVAQRSLSIFQKQQQGTLIFTGASASLRGKPFFAAFSMGKSALRSYALNLAELYRSQNIHVAHVMVDGMVDGDRVNKALWGLGRLARLTRGTGGLNIDAIAENYWMLYQQNVDLWT | failed
17 | MTSVESTAHIEKRFIELKNIWFIIASLCYVAAIGFIIAYFVGGYSPYISIAVMWGCIGSLDMILGILRRKKEK | failed
18 | MGFIVFCLIAYFVISHLSNKKDVSGNKANSNCPYCNAAFYLTENGDFNCSNCGRLFKYRDGIVYRQDERLPIVVELACTLFTILCKADGVVTKDEVSITKELLEKNFGLEDKDMKMAIDILNKSKSKPYTKTIINDLNNIFNNYDFSKTDAEDYKELILRCAMIIAFCDDGEPSNNQNKILDDIVSIFNISATKYTNLLNYFRDNCIEKNKNDYYEILGVSEGASKEEIRAAFRKLSKLYHPDRYSSKDLPPEIIKEFEEKLAKIIEAYEALK | failed
19 | MECDRISTLPDHLVAKIVSYLGIKDSIKTSVLSKRWEFVWLKVVGLDLKNCDFPPNGIASQMVVNKYMEFNSGLHMQYFKVNFGGNTVCTNRFLEWIATAVDRGVQHLDAENKNPVIIKEFMPKKIYKSKTLVSLKLAIKIFLKARHFISVFIVLQGQSIVQFSSRCGTFS | not failed
20 | DSGYSRETRALLFRAYRHDPTFAYLFNAEREGYEQRVLATIRQLVKQHFLQNQPALGLFLEDRLVGVALIAPPLRRLGVTESWAWRLRMVMDTGLGCTQRYLAYYNAVLACLPSETVHVLPLIGLDPEFQGQKMGQDLSEQLLAALHDWCAVDENSQGIVVDTGNPRYLEFYKRQGYEEIGEIAVGPV | not failed
